{"source": "patent US20120213763A1", "about": "(COUNCIL OF SCIENTIFIC AND INDUSTRIAL RESEARCH, published 2012)", "key": {"[1]": {"biological_target": "T1, PEGylated SK Lys 257 Cys (SEQ ID NO 48)", "T1 chain": "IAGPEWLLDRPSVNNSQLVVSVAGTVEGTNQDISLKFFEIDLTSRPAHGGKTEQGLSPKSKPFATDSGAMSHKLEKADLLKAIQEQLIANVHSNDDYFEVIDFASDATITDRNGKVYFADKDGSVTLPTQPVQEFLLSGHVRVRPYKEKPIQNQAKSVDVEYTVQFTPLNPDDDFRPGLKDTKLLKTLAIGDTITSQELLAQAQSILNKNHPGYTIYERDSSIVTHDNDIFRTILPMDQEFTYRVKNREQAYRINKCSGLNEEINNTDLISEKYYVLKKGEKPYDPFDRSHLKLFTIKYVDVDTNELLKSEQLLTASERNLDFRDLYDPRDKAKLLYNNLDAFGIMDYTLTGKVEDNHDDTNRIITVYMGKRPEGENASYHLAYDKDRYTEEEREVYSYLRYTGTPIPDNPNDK"}, "[2]": {"biological_target": "PEG Variants of SEQ ID NO 22 (PEGylated Cysteine variants of fibrin domain fusion form of SK)"}, "[3]": {"biological_target": "T2, PEGylated SK N-Cys (SEQ ID NO 489), Cys at N - 1 position in SK", "T2 chain": "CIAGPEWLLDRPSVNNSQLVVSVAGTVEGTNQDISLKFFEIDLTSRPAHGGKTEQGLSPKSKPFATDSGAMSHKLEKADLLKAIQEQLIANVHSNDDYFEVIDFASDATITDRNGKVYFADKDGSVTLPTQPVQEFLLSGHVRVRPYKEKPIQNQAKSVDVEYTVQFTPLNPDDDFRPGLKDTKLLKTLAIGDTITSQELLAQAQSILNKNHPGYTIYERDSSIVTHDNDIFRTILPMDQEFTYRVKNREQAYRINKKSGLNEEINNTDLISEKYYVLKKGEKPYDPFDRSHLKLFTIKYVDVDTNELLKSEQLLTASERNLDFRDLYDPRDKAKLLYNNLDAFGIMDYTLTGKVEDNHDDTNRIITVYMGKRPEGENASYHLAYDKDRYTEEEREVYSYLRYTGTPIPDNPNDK"}, "[4]": {"biological_target": "T3, PEGylated SK L179C (SEQ ID NO 41)", "T3 chain": "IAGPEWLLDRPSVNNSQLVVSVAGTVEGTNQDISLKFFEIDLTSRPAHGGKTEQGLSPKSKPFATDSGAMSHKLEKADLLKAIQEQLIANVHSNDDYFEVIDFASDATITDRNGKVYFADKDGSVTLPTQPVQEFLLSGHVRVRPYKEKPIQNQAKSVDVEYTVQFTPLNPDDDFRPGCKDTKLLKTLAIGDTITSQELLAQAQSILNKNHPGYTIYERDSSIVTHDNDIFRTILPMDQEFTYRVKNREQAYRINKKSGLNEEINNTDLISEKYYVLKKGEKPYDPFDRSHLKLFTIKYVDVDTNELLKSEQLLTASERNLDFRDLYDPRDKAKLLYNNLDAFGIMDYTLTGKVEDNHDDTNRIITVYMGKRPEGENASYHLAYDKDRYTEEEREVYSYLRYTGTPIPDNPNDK"}, "[5]": {"biological_target": "T4, bi-pegylated NC 1-414 (SEQ ID NO 491), Cys at N - 1 and at C + 1 position in SK", "T4 chain": "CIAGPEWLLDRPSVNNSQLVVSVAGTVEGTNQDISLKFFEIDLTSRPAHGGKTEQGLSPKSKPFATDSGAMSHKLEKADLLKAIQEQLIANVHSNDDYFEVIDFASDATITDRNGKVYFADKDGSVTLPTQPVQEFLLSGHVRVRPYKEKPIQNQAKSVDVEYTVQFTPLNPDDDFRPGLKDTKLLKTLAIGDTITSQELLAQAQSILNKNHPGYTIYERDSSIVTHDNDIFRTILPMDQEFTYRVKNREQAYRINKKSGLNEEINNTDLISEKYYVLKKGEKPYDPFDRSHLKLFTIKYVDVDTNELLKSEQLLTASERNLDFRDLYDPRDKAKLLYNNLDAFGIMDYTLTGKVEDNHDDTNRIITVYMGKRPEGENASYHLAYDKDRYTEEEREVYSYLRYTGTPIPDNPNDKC"}, "[6]": {"biological_target": "T5, PEGylated SK D173C (SEQ ID NO 39)", "T5 chain": "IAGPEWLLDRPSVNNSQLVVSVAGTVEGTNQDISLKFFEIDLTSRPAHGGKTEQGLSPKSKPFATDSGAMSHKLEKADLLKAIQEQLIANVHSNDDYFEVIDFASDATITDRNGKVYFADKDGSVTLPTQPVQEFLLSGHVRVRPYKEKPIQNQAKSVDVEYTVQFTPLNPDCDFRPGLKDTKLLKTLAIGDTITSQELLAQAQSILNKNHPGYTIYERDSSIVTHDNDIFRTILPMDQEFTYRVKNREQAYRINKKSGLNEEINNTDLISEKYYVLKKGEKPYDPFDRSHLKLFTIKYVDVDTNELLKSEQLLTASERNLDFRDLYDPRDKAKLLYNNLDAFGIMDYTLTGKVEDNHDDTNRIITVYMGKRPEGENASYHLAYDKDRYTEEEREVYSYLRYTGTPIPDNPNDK"}, "[7]": {"biological_target": "T6, PEGylated SK D95C (SEQ ID NO 30)", "T6 chain": "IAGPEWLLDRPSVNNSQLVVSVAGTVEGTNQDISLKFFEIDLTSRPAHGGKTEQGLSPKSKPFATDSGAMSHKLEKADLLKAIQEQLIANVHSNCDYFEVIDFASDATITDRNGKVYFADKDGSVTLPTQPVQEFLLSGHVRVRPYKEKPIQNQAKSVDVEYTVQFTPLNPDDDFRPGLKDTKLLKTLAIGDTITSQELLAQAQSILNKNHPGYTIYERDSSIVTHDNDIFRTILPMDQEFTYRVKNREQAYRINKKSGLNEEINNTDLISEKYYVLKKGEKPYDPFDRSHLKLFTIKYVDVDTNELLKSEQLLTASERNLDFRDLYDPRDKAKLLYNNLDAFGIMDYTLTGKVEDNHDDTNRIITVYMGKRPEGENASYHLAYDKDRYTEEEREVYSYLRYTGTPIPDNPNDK"}}, "note": "Values joined by “and” are separate entries in the source; they are usually repeats but may differ in a detail not shown here. Equal entries are not always repeated.", "data": [{"protein": "human plasminogen (HPG) (protein) KVYLSECKTGNGKNYRGTMSKTKNGITCQKWSSTSPHRPRFSPATHPSEGLEENYCRNPDNDPQGPWCYTTDPEKRYDYCDILECEEECMHCSGENYDGKISKTMSGLECQAWDSQSPHAHGYIPSKFPNKNLKKNYCRNPDRELRPWCFTTDPNKRWELCDIPRCTTPPPSSGPTYQCLKGTGENYRGNVAVTVSGHTCQHWSAQTPHTHNRTPENFPCKNLDENYCRNPDGKRAPWCHTTNSQVRWEYCKIPSCDSSPVSTEQLAPTAPPELTPVVQDCYHGDGQSYRGTSSTTTTGKKCQSWSSMTPHRHQKTPENYPNAGLTMNYCRNPDADKGPWCFTTDPSVRWEYCNLKKCSGTEASVVAPPPVVLLPDVETPSEEDCMFGNGKGYRGKRATTVTGTPCQDWAAQEPHRHSIFTPETNPRAGLEKNYCRNPDGDVGGPWCYTTNPRKLYDYCDVPQCAAPSFDCGKPQVEPKKCPGRVVGGCVAHPHSWPWQVSLRTRFGMHFCGGTLISPEWVLTAAHCLEKSPRPSSYKVILGAHQEVNLEPHVQEIEVSRLFLEPTRKDIALLKLSSPAVITDKVIPACLPSPNYVVADRTECFITGWGETQGTFGAGLLKEAQLPVIENKVCNRYEFLNGRVQSTELCAGHLAGGTDSCQGDSGGPLVCFEKDKYILQGVTSWGLGCARPNKPGVYVRVSRFVTWIEGVMRNN", "values": [{"measurement": "Km", "setting": "[1]", "value": 0.4, "unit": "µM"}, {"measurement": "Km", "setting": "[2]", "value": "0.25 µM and 0.6 µM"}, {"measurement": "Km", "setting": "[3]", "value": 0.4, "unit": "µM"}, {"measurement": "Km", "setting": "[4]", "value": 0.5, "unit": "µM"}, {"measurement": "Km", "setting": "[5]", "value": 0.42, "unit": "µM"}, {"measurement": "Km", "setting": "[6]", "value": 0.4, "unit": "µM"}, {"measurement": "Km", "setting": "[7]", "value": 0.5, "unit": "µM"}]}]}
